Tests used:
[1] = target: T1, FLAG-tagged ZNF224 (ZNF224-FLAG), pCAGGSc-ZNF224-FLAG (human, UniProt Q9NZL3 1-707); experiment: co-IP with anti-HA rat antibody from co-transfected Cos7 cells
T1 construct: Whole open reading frame of ZNF224 in frame with a C-terminal FLAG-tag, expressed in UM-UC-3 or COS7 cells; also called exogenous ZNF224; not shown: C-terminal FLAG-tag from the pCAGGScFLAG vector
Experimental: (§1) To confirm the interaction between DEPDC1 and ZNF224 in bladder cancer cells and identify the ZNF224-binding region in DEPDC1, the immunoprecipitation experiment was carried out as follows. First, it was confirmed interaction between endogenous DEPDC1 and exogenous ZNF224 by immunoprecipitation experiments using anti-DEPDC1 polyclonal antibody for immunoprecipitation and anti-FLAGM2 antibody (Amersham) for immunoblotting. To further determine the ZNF224-binding region in DEPDC1, it was cloned six partial constructs of DEPDC1 (DEPDC1₁₋₁₄₇, DEPDC1₁₄₁₋₃₀₀, DEPDC1₁₇₇₋₅₉₇, DEPDC1₃₀₀₋₆₆₉, DEPDC1₅₈₇₋₇₄₀ and DEPDC1₆₅₄₋₈₁₁) into appropriate sites of COOH-terminal HA-tagged pCAGGS vector. The nucleotide sequence of each clones were determined with an ABI Prism 3700 DNA sequencer (Applied Biosystems, Foster City, Calif.), using each primer. Cell extracts from Cos7 cell line, transfected with each of plasmids expressing one of these six partial segments of DEPDC1, were precleared by incubation at 4 degrees C. for 1 hour with 100 micro 1 of protein G-agarose beads in final volumes of 2 mL of immunoprecipitation buffer (0.5% NP40, 50 mmol/L Tris-HCl, 150 mmol/L NaCl) in the presence of proteinase inhibitor. After centrifugation at 1,000 rpm for 5 minutes at 4 degrees C., the supernatants were incubated at 4 degrees C. with anti-HA rat for 1 hours. […]

[2] = target: T1, FLAG-tagged ZNF224 (ZNF224-FLAG), …; experiment: co-IP with anti-HA antibody from co-transfected Cos7 cells
Experimental: as §1

T1 sequence (Q9NZL3 whole entry M118V/H562R): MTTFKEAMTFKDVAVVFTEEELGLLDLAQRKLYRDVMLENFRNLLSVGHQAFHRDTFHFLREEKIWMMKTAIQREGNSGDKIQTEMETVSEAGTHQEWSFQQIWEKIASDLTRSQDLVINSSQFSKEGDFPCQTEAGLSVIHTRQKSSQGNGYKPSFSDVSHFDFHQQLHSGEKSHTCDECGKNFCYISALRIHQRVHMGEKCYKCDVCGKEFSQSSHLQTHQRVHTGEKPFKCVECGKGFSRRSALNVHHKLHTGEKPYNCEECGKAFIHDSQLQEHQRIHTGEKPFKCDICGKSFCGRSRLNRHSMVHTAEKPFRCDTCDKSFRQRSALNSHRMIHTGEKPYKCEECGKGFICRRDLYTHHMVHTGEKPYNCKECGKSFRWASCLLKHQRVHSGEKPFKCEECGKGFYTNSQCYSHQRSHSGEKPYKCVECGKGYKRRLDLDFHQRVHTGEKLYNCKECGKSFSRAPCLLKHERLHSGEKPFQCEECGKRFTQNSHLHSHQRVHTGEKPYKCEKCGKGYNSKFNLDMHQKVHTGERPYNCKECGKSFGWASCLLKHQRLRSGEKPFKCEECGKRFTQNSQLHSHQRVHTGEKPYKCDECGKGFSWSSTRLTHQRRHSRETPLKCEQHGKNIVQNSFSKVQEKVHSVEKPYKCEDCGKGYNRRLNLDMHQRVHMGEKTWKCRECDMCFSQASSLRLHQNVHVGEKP

| Binder | binding result [1] | binding result [2] |
| --- | --- | --- |
| DEPDC1 587-740, COOH-terminal HA-tagged partial construct (other, The forward primer carries an added ACCATG, so an extra start Met may precede residue 587; not shown: C-terminal HA-tag from pCAGGScHA vector) QSLLQPHLERVAIDALQLCCLLLPPPNRRKLQLLMRMISRMSQNVDMPKLHDAMGTRSLMIHTFSRCVLCCAEEVDLDELLAGRLVSFLMDHHQEILQVPSYLQTAVEKHLDYLKKGHIENPGDGLFAPLPTYSYCKQISAQEFDEQKVSTSQA | binds | – |
| DEPDC1 300-669, COOH-terminal HA-tagged partial construct (other, The forward primer carries an added ACCATG, so an extra start Met may precede residue 300; not shown: C-terminal HA-tag from pCAGGScHA vector) VNILVVCGYITVSDRSSGIHKIQDDPQSSKFLHLNNLNSFKSTECLLLSLLHREKNKEESDSTERLQISNPGFQERCAKKMQLVNLRNRRVSANDIMGGSCHNLIGLSNMHDLSSNSKPRCCSLEGIVDVPGNSSKEASSVFHQSFPNIEGQNNKLFLESKPKQEFLLNLHSEENIQKPFSAGFKRTSTLTVQDQEELCNGKCKSKQLCRSQSLLLRSSTRRNSYINTPVAEIIMKPNVGQGSTSVQTAMESELGESSATINKRLCKSTIELSENSLLPASSMLTGTQSLLQPHLERVAIDALQLCCLLLPPPNRRKLQLLMRMISRMSQNVDMPKLHDAMGTRSLMIHTFSRCVLCCAEEVDLDELLAG | binds | – |
| DEPDC1 1-147, COOH-terminal HA-tagged partial construct (other, not shown: C-terminal HA-tag from pCAGGScHA vector) MESQGVPPGPYRATKLWNEVTTSFRAGMPLRKHRQHFKKYGNCFTAGEAVDWLYDLLRNNSNFGPEVTRQQTIQLLRKFLKNHVIEDIKGRWGSENVDDNNQLFRFPATSPLKTLPRRYPELRKNNIENFSKDKDSIFKLRNLSRRT | – | no binding |
| DEPDC1 177-597, COOH-terminal HA-tagged partial construct (other, not shown: C-terminal HA-tag from pCAGGScHA vector) DNRELSQEDVEEVWRYVILIYLQTILGVPSLEEVINPKQVIPQYIMYNMANTSKRGVVILQNKSDDLPHWVLSAMKCLANWPRSNDMNNPTYVGFERDVFRTIADYFLDLPEPLLTFEYYELFVNILVVCGYITVSDRSSGIHKIQDDPQSSKFLHLNNLNSFKSTECLLLSLLHREKNKEESDSTERLQISNPGFQERCAKKMQLVNLRNRRVSANDIMGGSCHNLIGLSNMHDLSSNSKPRCCSLEGIVDVPGNSSKEASSVFHQSFPNIEGQNNKLFLESKPKQEFLLNLHSEENIQKPFSAGFKRTSTLTVQDQEELCNGKCKSKQLCRSQSLLLRSSTRRNSYINTPVAEIIMKPNVGQGSTSVQTAMESELGESSATINKRLCKSTIELSENSLLPASSMLTGTQSLLQPHLERV | – | no binding |
